The values below come from PMC6698660.

For this assay, the target named is His-tagged Sinorhizobium meliloti DnaN (β-sliding clamp) (Sinorhizobium meliloti). The experiment in a line: BLI. In general terms: Biolayer interferometry detects binding as a change in optical thickness at a sensor tip.

Take “MBP-Flag-IEP fusion protein (MF-IEP) of the RmInt1 intron, made in E. coli (natural protein)”: the kon was 82000 M⁻¹ s⁻¹. The same measure for “MF-IEP104 (MF-IEP carrying substitution L104A) (natural protein)”: 44000 M⁻¹ s⁻¹.

By kon is commonly meant the rate constant with which the complex forms. A higher kon goes with faster complex formation.
